Measurements published in publication PMC3400562, “Structure-guided Alterations of the gp41-directed HIV-1 Broadly Neutralizing Antibody 2F5 Reveal New Properties Regarding its Neutralizing Function” (PLoS Pathogens, 2012).

Experiments:
wt MPER peptide [1] = target: T1, wt MPER peptide (HIV-1, strain  (synthetic …)); assay: cell-based or functional assay
wt MPER peptide [2] = target: T1, wt MPER peptide; assay: BLI; Octet Red; Mabs captured on anti-human IgG Fc biosensors (10 µg/mL), peptides or ES2 as analyte in solution, two-fold dilutions 500 nM to 7.81 nM, PBS pH 7.4, 0.2% Tween 20, 60 s association and 60 s dissociation, no lipid; Langmuir 1:1 fit; also used for the alanine-substituted MPER peptides; conditions: both partners purified
linked peptide [3] = target: T2, linked peptide (HIV-1, strain  (synthetic …)); assay: as above; conditions: both partners purified
T2 construct: source: synthetic peptide (Genscript)

wt MPER peptide [4] = target: T1, wt MPER peptide; assay: BLI; conditions: both partners purified
linked peptide [5] = target: T2, linked peptide; assay: BLI; conditions: both partners purified

Binder	IC50 of neutralisation of JR-CSF Env-pseudotyped HIV-1, single-cycle infectivity assay on TZM-bl cells (wt MPER peptide [1]) [µg/mL]	IC50 of neutralisation of JR-FL Env-pseudotyped HIV-1, single-cycle infectivity assay on TZM-bl cells (wt MPER peptide [1]) [µg/mL]	Kd (wt MPER peptide [2]) [nM]	koff (wt MPER peptide [2]) [s⁻¹]	kon (wt MPER peptide [2]) [M⁻¹ s⁻¹]	Kd (linked peptide [3]) [nM]	koff (linked peptide [3]) [s⁻¹]	kon (linked peptide [3]) [M⁻¹ s⁻¹]	Kd (wt MPER peptide [4]) [nM]	koff (wt MPER peptide [4]) [s⁻¹]	kon (wt MPER peptide [4]) [M⁻¹ s⁻¹]	Kd (linked peptide [5]) [nM]	koff (linked peptide [5]) [s⁻¹]	kon (linked peptide [5]) [M⁻¹ s⁻¹]
2F5 CDRH3 length-altered variant r2 (antibody, V domains shown) VH: RITLKESGPPLVKPTQTLTLTCSFSGFSLSDFGVGVGWIRQPPGKALEWLAIIYSDDDKRYSPSLNTRLTITKDTSKNQVVLVMTRVSPVDTATYFCAHRRGPTLFGVIARGPVNAMDVWGQGITVTISS VL: ALQLTQSPSSLSASVGDRITITCRASQGVTSALAWYRQKPGSPPQLLIYDASSLESGVPSRFSGSGSGTEFTLTISTLRPEDFATYYCQQLHFYPHTFGGGTRVDVR	98	111	90.2	0.0051	50000	55.8	0.0085	150000						
2F5 CDRH3 length-altered variant e2 (antibody, V domains shown) VH: RITLKESGPPLVKPTQTLTLTCSFSGFSLSDFGVGVGWIRQPPGKALEWLAIIYSDDDKRYSPSLNTRLTITKDTSKNQVVLVMTRVSPVDTATYFCAHRRGPTTGLFGVGPIARGPVNAMDVWGQGITVTISS VL: ALQLTQSPSSLSASVGDRITITCRASQGVTSALAWYRQKPGSPPQLLIYDASSLESGVPSRFSGSGSGTEFTLTISTLRPEDFATYYCQQLHFYPHTFGGGTRVDVR			463	0.0087	10000	26.9	0.0035	130000						
2F5 CDRH3 length-altered variant r4 (antibody, V domains shown) VH: RITLKESGPPLVKPTQTLTLTCSFSGFSLSDFGVGVGWIRQPPGKALEWLAIIYSDDDKRYSPSLNTRLTITKDTSKNQVVLVMTRVSPVDTATYFCAHRRGPLFGVARGPVNAMDVWGQGITVTISS VL: ALQLTQSPSSLSASVGDRITITCRASQGVTSALAWYRQKPGSPPQLLIYDASSLESGVPSRFSGSGSGTEFTLTISTLRPEDFATYYCQQLHFYPHTFGGGTRVDVR			382	0.0081	20000	96.8	0.0105	100000						
wt 2F5 antibody (antibody, V domains shown, also called 2F5 Mab; Mab 2F5) VH: RITLKESGPPLVKPTQTLTLTCSFSGFSLSDFGVGVGWIRQPPGKALEWLAIIYSDDDKRYSPSLNTRLTITKDTSKNQVVLVMTRVSPVDTATYFCAHRRGPTTLFGVPIARGPVNAMDVWGQGITVTISS VL: ALQLTQSPSSLSASVGDRITITCRASQGVTSALAWYRQKPGSPPQLLIYDASSLESGVPSRFSGSGSGTEFTLTISTLRPEDFATYYCQQLHFYPHTFGGGTRVDVR									3.1	0.0007	230000	2.2	0.0007	360000
2F5 CDRH3 length-altered variant r6 (antibody, V domains shown) VH: RITLKESGPPLVKPTQTLTLTCSFSGFSLSDFGVGVGWIRQPPGKALEWLAIIYSDDDKRYSPSLNTRLTITKDTSKNQVVLVMTRVSPVDTATYFCAHRRGLFGVRGPVNAMDVWGQGITVTISS VL: ALQLTQSPSSLSASVGDRITITCRASQGVTSALAWYRQKPGSPPQLLIYDASSLESGVPSRFSGSGSGTEFTLTISTLRPEDFATYYCQQLHFYPHTFGGGTRVDVR			390	0.0189	40000	125	0.0237	180000						
2F5 CDRH3 length-altered variant e4 (antibody, V domains shown) VH: RITLKESGPPLVKPTQTLTLTCSFSGFSLSDFGVGVGWIRQPPGKALEWLAIIYSDDDKRYSPSLNTRLTITKDTSKNQVVLVMTRVSPVDTATYFCAHRRGPTTGGLFGVGGPIARGPVNAMDVWGQGITVTISS VL: ALQLTQSPSSLSASVGDRITITCRASQGVTSALAWYRQKPGSPPQLLIYDASSLESGVPSRFSGSGSGTEFTLTISTLRPEDFATYYCQQLHFYPHTFGGGTRVDVR			239	0.0101	40000	78.6	0.0104	130000						
